The record followed here is the supplement of paper PMC9112550, “Optimization of the antimicrobial peptide Bac7 by deep mutational scanning” (BMC Biology, 2022).

This data set relates to Escherichia coli TOP10. Briefly: shrunken log2 fold change of peptide-encoding DNA abundance (4.5 h post-induction vs induction); higher = less antimicrobial activity (less host growth inhibition). Particulars: time post-induction: 4.5 h; library: site-saturation at positions 5, 18, 19, 20.
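Also: peptides expressed intracellularly from a pBAD plasmid library in pooled LB shake-flask culture, induced with 0.3% L-arabinose, DNA abundance read by NGS, three biological replicates, DESeq2 with apeglm shrinkage.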

With RRIRQRPPRLPRPRPRPSVSPRP, the “shrunken log2 fold change” value is -0.000735.
Turning to RRIRGRPPRLPRPRPRPMSKPRP, the “shrunken log2 fold change” value amounted to 0.269.
Regarding RRIRGRPPRLPRPRPRPAMIPRP, the “shrunken log2 fold change” value came to 0.2.
With RRIRRRPPRLPRPRPRPAYPPRP, the “shrunken log2 fold change” value came out at 0.0273.
On to RRIRQRPPRLPRPRPRPYIRPRP, for which the “shrunken log2 fold change” value was -0.197.
As for RRIRFRPPRLPRPRPRPKTNPRP, the “shrunken log2 fold change” value was found to be 0.0585.
The figure for RRIRMRPPRLPRPRPRPGYIPRP is -0.0175; for RRIRPRPPRLPRPRPRPIFSPRP it is 0.14.
On to RRIRHRPPRLPRPRPRPIRSPRP, for which the “shrunken log2 fold change” value is -0.0062.
RRIRTRPPRLPRPRPRPYHKPRP: the “shrunken log2 fold change” value was -0.426.
Consider RRIRCRPPRLPRPRPRPTESPRP, for which the “shrunken log2 fold change” value worked out at 0.101.
On to RRIRVRPPRLPRPRPRPDPGPRP, for which the “shrunken log2 fold change” value was -0.321.
The same measure for RRIRRRPPRLPRPRPRPISGPRP: 0.0239; for RRIRMRPPRLPRPRPRPVVFPRP: 2.6.
Take RRIRPRPPRLPRPRPRPKNEPRP: the “shrunken log2 fold change” value was -0.119.
The same measure for RRIRRRPPRLPRPRPRPGGIPRP: 0.0225; for RRIRVRPPRLPRPRPRPDFEPRP: 0.0704; for RRIRVRPPRLPRPRPRPHTKPRP: 0.11.
The same measure for RRIRPRPPRLPRPRPRPQDAPRP: 0.355; for RRIRNRPPRLPRPRPRPTFFPRP: -0.139; for RRIRMRPPRLPRPRPRPNNVPRP: -0.0591.
The same measure for RRIRWRPPRLPRPRPRPIFVPRP: 0.0493; for RRIRPRPPRLPRPRPRPSWWPRP: 0.394.
For the sequence RRIRQRPPRLPRPRPRPIVPPRP, the “shrunken log2 fold change” value amounted to 0.053.
The same measure for RRIRGRPPRLPRPRPRPYPCPRP: -0.0571.
RRIRQRPPRLPRPRPRPKRYPRP: the “shrunken log2 fold change” value was -0.138.
For RRIRPRPPRLPRPRPRPPAQPRP, the “shrunken log2 fold change” value was 0.57.
The figure for RRIRTRPPRLPRPRPRPCKMPRP is -0.47.
Turning to RRIRDRPPRLPRPRPRPEDYPRP, the “shrunken log2 fold change” value came out at 0.0219.
On to RRIRFRPPRLPRPRPRPFINPRP, for which the “shrunken log2 fold change” value was -0.874.
For RRIRGRPPRLPRPRPRPGSQPRP, the “shrunken log2 fold change” value is 0.722.
With RRIRERPPRLPRPRPRPSQEPRP, the “shrunken log2 fold change” value was -0.0844.
Turning to RRIRARPPRLPRPRPRPHIWPRP, the “shrunken log2 fold change” value was -0.187.
With RRIRFRPPRLPRPRPRPTKPPRP, the “shrunken log2 fold change” value is -0.00249.
Consider RRIRNRPPRLPRPRPRPFKLPRP, for which the “shrunken log2 fold change” value was -0.155.
As for RRIRVRPPRLPRPRPRPAAPPRP, the “shrunken log2 fold change” value came out at 0.452.
RRIRARPPRLPRPRPRPLRSPRP: the “shrunken log2 fold change” value amounted to 0.914.
The same measure for RRIRKRPPRLPRPRPRPHFKPRP: -0.0252; for RRIRGRPPRLPRPRPRPRVYPRP: 0.35.
As for RRIRRRPPRLPRPRPRPRAQPRP, the “shrunken log2 fold change” value was determined as 0.5.
Turning to RRIRKRPPRLPRPRPRPRGKPRP, the “shrunken log2 fold change” value is 0.126.
The figure for RRIRIRPPRLPRPRPRPNRYPRP is -0.295; for RRIRSRPPRLPRPRPRPLYMPRP it is -1; for RRIRPRPPRLPRPRPRPMVEPRP it is -0.112.
Consider RRIRWRPPRLPRPRPRPEGQPRP, for which the “shrunken log2 fold change” value worked out at 4.45.
Regarding RRIRHRPPRLPRPRPRPFGHPRP, the “shrunken log2 fold change” value was -0.233.
The figure for RRIRMRPPRLPRPRPRPSNQPRP is -0.0365; for RRIRKRPPRLPRPRPRPGQLPRP it is 0.236.
The same measure for RRIRYRPPRLPRPRPRPEQRPRP: -0.067; for RRIRIRPPRLPRPRPRPYKGPRP: -0.018.
In the case of RRIRIRPPRLPRPRPRPWMTPRP, the “shrunken log2 fold change” value is -0.53.
The figure for RRIRCRPPRLPRPRPRPHYSPRP is -0.723.
On to RRIRPRPPRLPRPRPRPSSKPRP, for which the “shrunken log2 fold change” value is -0.217.
With RRIRTRPPRLPRPRPRPSQLPRP, the “shrunken log2 fold change” value was -0.453.
Turning to RRIRTRPPRLPRPRPRPFNVPRP, the “shrunken log2 fold change” value was -0.029.
RRIRIRPPRLPRPRPRPTVSPRP: the “shrunken log2 fold change” value is -0.0336.
The same measure for RRIRTRPPRLPRPRPRPAIWPRP: 0.238; for RRIRSRPPRLPRPRPRPLKPPRP: 0.0304.
The same measure for RRIRVRPPRLPRPRPRPGGCPRP: 0.261; for RRIRLRPPRLPRPRPRPAARPRP: 0.453; for RRIRARPPRLPRPRPRPYENPRP: -0.0975.
The same measure for RRIRQRPPRLPRPRPRPRAAPRP: 0.506; for RRIRWRPPRLPRPRPRPERYPRP: 0.142.
With RRIRWRPPRLPRPRPRPHAIPRP, the “shrunken log2 fold change” value was -0.124.
Regarding RRIRVRPPRLPRPRPRPMPHPRP, the “shrunken log2 fold change” value was -0.227.
Turning to RRIRHRPPRLPRPRPRPPNDPRP, the “shrunken log2 fold change” value was -0.471.
Take RRIRHRPPRLPRPRPRPIMCPRP: the “shrunken log2 fold change” value was -0.245.
RRIRHRPPRLPRPRPRPTFTPRP: the “shrunken log2 fold change” value is -0.265.
The same measure for RRIRLRPPRLPRPRPRPMPDPRP: -0.00255.
Turning to RRIRCRPPRLPRPRPRPPETPRP, the “shrunken log2 fold change” value is 0.105.
In the case of RRIRERPPRLPRPRPRPQTDPRP, the “shrunken log2 fold change” value was -0.323.
The figure for RRIRFRPPRLPRPRPRPMCSPRP is -0.687.
Take RRIRHRPPRLPRPRPRPEMCPRP: the “shrunken log2 fold change” value is -0.206.
In the case of RRIRMRPPRLPRPRPRPSFPPRP, the “shrunken log2 fold change” value is -0.222.
Regarding RRIRERPPRLPRPRPRPMPQPRP, the “shrunken log2 fold change” value is -0.201.
The same measure for RRIRNRPPRLPRPRPRPDAIPRP: 0.0267; for RRIRRRPPRLPRPRPRPPQHPRP: 1.2.
On to RRIRARPPRLPRPRPRPLLGPRP, for which the “shrunken log2 fold change” value is 1.07.
Regarding RRIRNRPPRLPRPRPRPDKSPRP, the “shrunken log2 fold change” value is -0.193.
The figure for RRIRGRPPRLPRPRPRPNGKPRP is 0.311; for RRIRMRPPRLPRPRPRPQPKPRP it is 1.77.
For RRIRSRPPRLPRPRPRPFIQPRP, the “shrunken log2 fold change” value is -0.0991.
Consider RRIRNRPPRLPRPRPRPHVDPRP, for which the “shrunken log2 fold change” value is 0.00884.
For RRIRDRPPRLPRPRPRPLPYPRP, the “shrunken log2 fold change” value is -0.0311.
On to RRIRCRPPRLPRPRPRPVLSPRP, for which the “shrunken log2 fold change” value is -0.192.
In the case of RRIRWRPPRLPRPRPRPDKRPRP, the “shrunken log2 fold change” value was -0.00125.
Regarding RRIRLRPPRLPRPRPRPTVSPRP, the “shrunken log2 fold change” value was 0.0646.
Consider RRIRNRPPRLPRPRPRPGFPPRP, for which the “shrunken log2 fold change” value was -0.00149.
RRIRYRPPRLPRPRPRPLTPPRP: the “shrunken log2 fold change” value is 0.0282.
The figure for RRIRSRPPRLPRPRPRPQQCPRP is -0.146; for RRIRTRPPRLPRPRPRPHGPPRP it is 0.157.
